Data published in patent publication US20200345810A1, “USE OF ALPHA-1-MICROGLOBULIN FOR PROTECTION OF BONE MARROW CELLS” (GUARD THERAPEUTICS INTERNATIONAL AB, priority 2017, published 2020).
Changes are numbered by the printed parent chain. Names may count otherwise.

What was measured:
[1] = general background on A1M secreted into the blood stream; cited from earlier work
[2] = test system: Rps19 deficient erythroid precursors; test: Drug screen: proliferation of Kit+ bone marrow cells in erythroid culture (CellTiter Glo); format: cell-based, mice; conditions: 5 days expansion; A1M at 5 and 10 μM; FIG. 4B
Experimental: (§1) FIG. 4: A1M treatment improves expansion of erythroid cells from a murine DBA model and patients. CD117 (Kit)+ bone marrow cells were treated with Doxycycline to induce Rps19 deficiency. Twenty four hours after Doxycycline administration, cells were treated with drugs interfering with iron or heme availability. The ATP measuring platform CellTiter Glo was used to monitor viable cells after 5 days of expansion. In A) a schematic picture of the drug screen is shown. B) Proliferation of bone marrow cells (as described in A) from Rps19 inducible mice treated with respective drug compounds interfering with iron or heme availability is presented. Shown is also a schematic picture of drug activity where A1M is shown to have intracellular effects by reducing unbound heme in erythroblast. The cells were cultured in erythroid promoting media for 5 days. Kruskal-Wallis non parametric test with Dunn's multiple comparisons test was used for statistical analysis, and genotypes were compared to respective control, separately. p-values: *≤005, **≤001, ***≤0001, ****≤00001. C) Concentration of free unbound intracellular heme in Kit+ bone marrow cells from the Rps19 deficient mouse expanded in erythroid culture with A1M or vehicle for 72 hours. Mann Whitney non parametric analysis was employed for statistical analysis within each genotype. D) Expansion of CD34+ erythroid precursors from peripheral blood of DBA patients with mutations in RPS19, RPL35a and RPS26, or healthy controls treated with A1M or vehicle in erythroid promoting media for 7 days. […]
(§2) The drugs administered 24 hours after Doxycycline administration were A1M (supplied by A1M Pharma AB, Sweden), N-methyl mesoporphyrin IX (AH Diagnostics, Denmark), Succinylacetone, hemin, Deferoxamine, Ferrostatin and N-acetyl-L-cystein and hemopexin (Sigma-Aldrich). Cell expansion 5 days after drug administration was measured using CellTiter Glo (Promega, US), which measures the number of viable and metabolically active cells in culture based on quantitation of the ATP present. Plates were read on Victor 3 Multilabel counter (PerkinElmer, US).

WT cells = test: as above; format: cell-based, mice; conditions: 5 days expansion; FIG. 4B
Experimental: as §1, §2

[3] = test system: erythroid precursors from DBA patients; test: Expansion of CD34+ erythroid precursors from peripheral blood (manual cell count); format: cell-based, human; conditions: 5 μM A1M every 2-3 days, 7-8 days; mutations in RPS19, RPS26, RPL35a; FIG. 4D
Experimental: as §1, with “genotype.” for “genotype. D) Expansion of CD34+ erythroid precursors from peripheral blood of DBA patients with mutations in RPS19, RPL35a and RPS26, or healthy controls treated with A1M or vehicle in erythroid promoting media for 7 days.”

[4] = test system: cells from healthy subjects; test: as above; format: cell-based, human; conditions: 5 μM A1M every 2-3 days, 7-8 days; FIG. 4D
Experimental: as §1, with “genotype.” for “genotype. D) Expansion of CD34+ erythroid precursors from peripheral blood of DBA patients with mutations in RPS19, RPL35a and RPS26, or healthy controls treated with A1M or vehicle in erythroid promoting media for 7 days.”

bone marrow cells = test: Bone marrow flow cytometry after 177Lu-DOTATATE exposure (radiation-induced damage); format: in vivo, BALB/c mice; conditions: 4 days
Experimental: (§3) Female BALB/c mice (Taconic, Denmark) at the age of 12 weeks were used in this study. Two groups (n=5-10) received a subcutaneous administration of either A1M (20 mg/kg) or vehicle buffer (10 mM Na-phosphate pH 7.4+0.15 M NaCl+12 mM histidine) followed by an intravenous (i.v.) injection, 30 minutes later, of ^177Lu-DOTATATE (150 MBq). A control group (n=5-10) received a subcutaneous administration of vehicle, followed by, 30 minutes after, an i.v. injections of NaCl. Animals were sacrificed 4 days post-injections.
After 4 days (post ^177Lu-DOTATATE administration), blood, for peripheral blood cell and reticulocyte count, was sampled from vena saphena, on non-anesthetized animals, in EDTA pre-coated vials (Microvette CB 300 K2E, Sarstedt, Nümbrecht, Germany) and placed on a rocking mixer in room temperature followed by analysis as described below. […]
Bone marrow cells were isolated by crushing femur in PBS containing 2% FCS (GIBCO, Waltham, Mass., USA) and passing them though a 70 um cell strainer to obtain single cell suspension. […] All experiments were performed on LSRFortessa (BD Biosciences) flow cytometry and analyzed with FlowJo software.
Bone marrow cellularity was counted from the single cell suspension using hematology analyzer SYSMEX KX-21 N.

peripheral blood cells = test: Peripheral blood reticulocyte count after 177Lu-DOTATATE exposure; format: in vivo, BALB/c mice; conditions: A1M 20 mg/kg subcutaneous 30 minutes prior to 150 MBq 177Lu-DOTATATE i.v.; 4 days; FIG. 2B
Experimental: as §3
After 4 days (post ^177Lu-DOTATATE administration), blood, for peripheral blood cell and reticulocyte count, was sampled from vena saphena, on non-anesthetized animals, in EDTA pre-coated vials (Microvette CB 300 K2E, Sarstedt, Nümbrecht, Germany) and placed on a rocking mixer in room temperature followed by analysis as described below. Thereafter the animals were anaesthetized using isoflurane, sacrificed by cervical dislocation and femur (left and right) sampled and placed in PBS, pH 7.4 in a 24 well plate standing on wet ice.
Following collection of peripheral blood SYSMEX KX-21N hematology analyzer was used for determining Blood parameters. Reticulocyte count was determined using LSR Fortessa or Canto II flow cytometry using Retic-Count (BD Biosciences).

[5] = test system: Rps19 deficient erythroid cells; test: Free unbound intracellular heme in Kit+ bone marrow cells expanded in erythroid culture; format: cell-based, mouse; conditions: erythroid culture with A1M or vehicle for 72 hours; FIG. 4C
Experimental: as §1, with “genotype.” for “genotype. D) Expansion of CD34+ erythroid precursors from peripheral blood of DBA patients with mutations in RPS19, RPL35a and RPS26, or healthy controls treated with A1M or vehicle in erythroid promoting media for 7 days.”

[6] = Solubility/stability and function of A1M mutation variants; format: physicochemical; conditions: mutated A1M variants

B1: alpha-1-microglobulin (protein, listed as Homo sapiens)
chain: GPVPTPPDNIQVQENFDISRIYGKWYNLAIGSTCPWLKKIMDRMTVSTLVLGEGATEAEISMTSTHWRKGVCEETSGAYEKTDTDGKFLYHKSKWDITMESYVVHTNYDEYAIFLTKKFSRHHGPTITAKLYGRAPQLRETLLQDFRVVAQGVGIPEDSIFTMADRGECVPGEQEPEPILIPR
modifications: Wildtype human A1M, no mutations
notes: Recombinant human A1M, variant RMC-035 corresponding to A1M (R66H+N17,96D), supplied by A1M Pharma AB
T½ of transport across the vessel walls to the extravascular compartment [1]: 2 to 3 min | proliferation of Rps19 deficient erythroid precursors [2]: increased proliferation | proliferation of WT cells (WT cells): No effect on proliferation | expansion of erythroid precursors from three DBA patients [3]: improved expansion | expansion of cells from healthy subjects [4]: no such trend was observed | percentage of viable reticulocytes in bone marrow (bone marrow cells; A1M 20 mg/kg subcutaneous 30 minutes prior to 150 MBq 177Lu-DOTATATE i.v., FIG. 2A): completely preserved reticulocyte population at the level of the non-radiation exposed control animals | protection of the proerythroblast population (bone marrow cells; A1M 20 mg/kg subcutaneous 30 minutes prior to 150 MBq 177Lu-DOTATATE, FIG. 3): displayed protection of the proerythroblast population | percentage of viable reticulocytes in peripheral blood (peripheral blood cells): completely preserved reticulocyte population at the level of the non-radiation exposed control animals | level of unbound intracellular heme [5]: significantly reduce the level of unbound intracellular heme back to WT levels

B2: hemopexin: mainly extracellular heme scavenger (Sigma-Aldrich) (protein, UniProt P02790 24-462, looked up)
Hemopexin: TPLPPTSAHGNVAEGETKPDPDVTERCSDGWSFDATTLDDNGTMLFFKGEFVWKSHKWDRELISERWKNFPSPVDAAFRQGHNSVFLIKGDKVWVYPPEKKEKGYPKLLQDEFPGIPSPLDAAVECHRGECQAEGVLFFQGDREWFWDLATGTMKERSWPAVGNCSSALRWLGRYYCFQGNQFLRFDPVRGEVPPRYPRDVRDYFMPCPGRGHGHRNGTGHGNSTHHGPEYMRCSPHLVLSALTSDNHGATYAFSGTHYWRLDTSRDGWHSWPIAHQWPQGPSAVDAAFSWEEKLYLVQGTQVYVFLTKGGYTLVSGYPKRLEKEVGTPHGIILDSVDAAFICPGSSRLHIMAGRRLWWLDLKSGAQATWTELPWPHEKVDGALCMEKSLGPNSCSANGPGLYLIHGPNLYCYSDVEKLNAAKALPQPQNVTSLLGCTH
proliferation of Rps19 deficient erythroid precursors [2]: no effect

B3: (M41K+R66H): A1M with point mutations M41K and R66H (protein, UniProt P02760 20-203, looked up, variant M41K R66H)
Alpha-1-microglobulin: GPVPTPPDNIQVQENFNISRIYGKWYNLAIGSTCPWLKKIKDRMTVSTLVLGEGATEAEISMTSTHWRKGVCEETSGAYEKTDTDGKFLYHKSKWNITMESYVVHTNYDEYAIFLTKKFSRHHGPTITAKLYGRAPQLRETLLQDFRVVAQGVGIPEDSIFTMADRGECVPGEQEPEPILIPRV
modifications: Alpha-1-microglobulin
solubility and/or stability and function [6]: increased solubility and/or stability with maintained function

B4: (R66H+N17,96D): A1M with point mutations R66H and N17,96D; RMC-035 corresponds to this variant (protein, UniProt P02760 20-203, looked up, variant R66H N17D N96D)
Alpha-1-microglobulin: B3 Alpha-1-microglobulin with N17D, K41M, N96D
modifications: Alpha-1-microglobulin RMC-035
solubility and/or stability and function [6]: increased solubility and/or stability with maintained function

B5: (M41K+N17,96D): A1M with point mutations M41K and N17,96D (protein, UniProt P02760 20-203, looked up, variant M41K N17D N96D)
Alpha-1-microglobulin: B3 Alpha-1-microglobulin with N17D, H66R, N96D
modifications: Alpha-1-microglobulin
notes: A1M with point mutations M41K and N17,96D
solubility and/or stability and function [6]: increased solubility and/or stability with maintained function

B6: (M41K+R66H+N17,96D): A1M with point mutations M41K, R66H and N17,96D (protein, UniProt P02760 20-203, looked up, variant M41K R66H N17D N96D)
Alpha-1-microglobulin: B3 Alpha-1-microglobulin with N17D, N96D
modifications: Alpha-1-microglobulin
notes: A1M with point mutations M41K, R66H and N17,96D
solubility and/or stability and function [6]: increased solubility and/or stability with maintained function
